Test results from patent US20170014494.

Tested on: flag-tagged SUMO1
Sequence (chain, as listed by the source): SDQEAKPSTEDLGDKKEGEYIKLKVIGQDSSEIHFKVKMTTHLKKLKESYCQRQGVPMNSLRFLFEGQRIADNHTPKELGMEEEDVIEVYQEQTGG

## SERCA2a wild type (WT), expressed from a plasmid in HEK293 cells
  Vmax of Ca2+-dependent ATPase activity of WT SERCA2a with co-expression of SUMO1: 98.58 ± 1.83 nmol/min/mg
